Experimental data taken from patent publication US20120035094A1.

B1: F11R-peptide 1 (peptide)
peptide: SVTVHSSEPEVRIPENNPVKLSC
B2: F11R-peptide 4 (peptide)
peptide: KSVTREDTGTYTC

Key:
[1] = molecular target: Monoclonal antibody M.Ab.F11; test: platelet adhesion to immobilized M.Ab.F11 (150 ng/well), BCA protein read-out; peptide at 50 µM
[2] = molecular target: Monoclonal antibody M.Ab.F11; test: platelet adhesion to immobilized M.Ab.F11 (150 ng/well), BCA protein read-out; peptide at 500 µM

Binder	% inhibition of the adhesion of platelets to immobilized M.Ab.F11 [1] [%]	% inhibition of the adhesion of platelets to immobilized M.Ab.F11 [2] [%]
B1	60	70
B2	10	70
